The assay deals with T1, Mycobacterium tuberculosis GroEL1 (Rv3417c) without (His)6 tag (Mycobacterium tuberculosis), P9WPE9.
T1 chain: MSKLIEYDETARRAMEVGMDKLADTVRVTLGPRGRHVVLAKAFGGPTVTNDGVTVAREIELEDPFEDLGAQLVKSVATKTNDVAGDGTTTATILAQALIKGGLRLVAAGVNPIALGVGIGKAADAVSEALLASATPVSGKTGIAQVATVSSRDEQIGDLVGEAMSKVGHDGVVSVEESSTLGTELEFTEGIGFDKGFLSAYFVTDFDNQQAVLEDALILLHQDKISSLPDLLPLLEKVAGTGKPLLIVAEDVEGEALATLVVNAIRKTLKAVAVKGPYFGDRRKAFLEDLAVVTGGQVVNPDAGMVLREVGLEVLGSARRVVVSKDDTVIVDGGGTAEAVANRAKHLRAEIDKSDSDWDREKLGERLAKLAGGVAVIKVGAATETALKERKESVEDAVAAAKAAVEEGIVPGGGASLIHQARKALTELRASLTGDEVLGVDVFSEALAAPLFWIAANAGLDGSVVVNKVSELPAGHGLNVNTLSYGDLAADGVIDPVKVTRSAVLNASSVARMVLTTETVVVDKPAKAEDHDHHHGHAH
In words: SEC. As to conditions: remark: other sources report otherwise.

B1: Mycobacterium tuberculosis GroEL1 (Rv3417c) without (His)6 tag, P9WPE9 1-539 (natural protein)
chain: T1 chain
For orientation: stoichiometry N means the number of molecules, sites or subunits per partner or assembly. On to B1, for which the stoichiometry N was 2.

(Values after publication PMC2731897.)
